For this assay, the target named is T1, RXFP1 receptor (endogenous, on OVCAR5 cells) (UniProt Q9HBX9 1-757, limits assumed).
T1 sequence (looked up): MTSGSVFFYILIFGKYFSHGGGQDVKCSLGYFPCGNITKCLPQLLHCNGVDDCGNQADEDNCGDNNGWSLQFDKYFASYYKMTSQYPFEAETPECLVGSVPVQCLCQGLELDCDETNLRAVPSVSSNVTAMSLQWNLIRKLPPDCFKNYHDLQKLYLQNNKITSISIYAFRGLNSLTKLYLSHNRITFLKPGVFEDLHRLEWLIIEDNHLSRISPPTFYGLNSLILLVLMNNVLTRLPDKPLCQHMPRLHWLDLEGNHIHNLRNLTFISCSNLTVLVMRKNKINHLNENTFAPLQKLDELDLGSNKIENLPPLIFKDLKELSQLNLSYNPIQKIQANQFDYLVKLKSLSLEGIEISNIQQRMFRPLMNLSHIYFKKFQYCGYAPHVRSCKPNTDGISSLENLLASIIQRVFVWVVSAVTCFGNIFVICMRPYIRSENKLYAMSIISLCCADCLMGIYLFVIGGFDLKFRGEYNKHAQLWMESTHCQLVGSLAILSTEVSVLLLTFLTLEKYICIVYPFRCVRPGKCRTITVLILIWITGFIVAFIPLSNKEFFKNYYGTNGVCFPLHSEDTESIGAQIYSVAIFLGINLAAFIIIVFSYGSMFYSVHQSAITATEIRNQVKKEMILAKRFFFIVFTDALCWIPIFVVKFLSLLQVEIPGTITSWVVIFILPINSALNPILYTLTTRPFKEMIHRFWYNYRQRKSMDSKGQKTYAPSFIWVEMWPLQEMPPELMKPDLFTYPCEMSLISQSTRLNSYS
The assay can be described thus: cell-based or functional assay.

Starred links: 1 amine or outer side, 2 acyl side, 3 side chain; linkers in the order of their positions; H or OH if unused. Non-standard residues stand in square brackets, D forms with d. Groups on a side chain read outwards from the residue. *: point of attachment. TTDS = 4-[3-[2-[2-(3-aminopropoxy)ethoxy]ethoxy]propylamino]-4-oxo-butanoyl; Trp(5-Cl) = N[C@@H](Cc1c[nH]c2ccc(Cl)cc12)C(=O)O; Trp(5-F) = N[C@@H](Cc1c[nH]c2ccc(F)cc12)C(=O)O; Phe(4-F) = N[C@@H](Cc1ccc(F)cc1)C(=O)O; γGlu = O=C(O)[C@H](CCC(=O)[*:2])N[*:1]; Palmitoyl = CCCCCCCCCCCCCCCC(=O)*; αMeF = C[C@](N)(Cc1ccccc1)C(=O)O; Myristoyl = CCCCCCCCCCCCCC(=O)*; Cit = NC(=O)NCCC[C@H](N)C(=O)O; αMeK = C[C@](N)(CCCCN)C(=O)O; hLys = NCCCCC[C@H](N)C(=O)O; AEEA = NCCOCCOCC(=O)O; Aib = CC(C)(N)C(=O)O

These results are taken from patent US20190233494A1 (Sanofi, published 2019).

As for Ac-LEGREKVRAK(Ac)I[Aib][Aib]EGK([TTDS-TTDS-TTDS-γGlu-γGlu-γGlu-Palmitoyl])STFVRRAK(Ac)-NH2 [peptide of SEQ ID NO: 94], the “EC50 (nM), OVCAR 5 cells (cAMP)” value was 1.74 nM and the “EMax, OVCAR 5 cells (cAMP)” value worked out at 88%.

As for Ac-LEGRERVRAK(Ac)I[Aib][Aib]EGK([TTDS-TTDS-TTDS-γGlu-γGlu-γGlu-Palmitoyl])ST[Trp(5-Cl)]S[Aib]RRK(Ac)-NH2 [peptide of SEQ ID NO: 80], the “EC50 (nM), OVCAR 5 cells (cAMP)” value stood at 0.63 nM and the “EMax, OVCAR 5 cells (cAMP)” value worked out at 93%.

With Ac-LEGRERVRAK(Ac)I[Aib][Aib]EGK([TTDS-TTDS-TTDS-γGlu-γGlu-γGlu-Palmitoyl])ST[Phe(4-F)]S[Aib]RRK(Ac)-NH2 [peptide of SEQ ID NO: 91], the “EC50 (nM), OVCAR 5 cells (cAMP)” value worked out at 0.09 nM and the “EMax, OVCAR 5 cells (cAMP)” value turned out to be 97%.

As for Ac-LEGREKVRAK(Ac)I[Aib][Aib]EGK([TTDS-TTDS-TTDS-γGlu-γGlu-γGlu-Palmitoyl])STFS[hLys]RAK(Ac)-NH2 [peptide of SEQ ID NO: 88], the “EC50 (nM), OVCAR 5 cells (cAMP)” value is 0.17 nM and the “EMax, OVCAR 5 cells (cAMP)” value amounted to 96%.

In the case of Ac-LEGRERVR[Aib]K(Ac)I[Aib][Aib]EGK([TTDS-TTDS-TTDS-γGlu-γGlu-γGlu-Palmitoyl])STWS[Aib]RRK(Ac)-NH2 [peptide of SEQ ID NO: 85], the “EC50 (nM), OVCAR 5 cells (cAMP)” value worked out at 0.3 nM and the “EMax, OVCAR 5 cells (cAMP)” value was determined as 92%.

In the case of Ac-LEGREKVRAK(Ac)I[Aib][Aib]EGK([TTDS-TTDS-TTDS-γGlu-γGlu-γGlu-Myristoyl])STFS[αMeK]RAK-NH2 [peptide of SEQ ID NO: 96], the “EC50 (nM), OVCAR 5 cells (cAMP)” value was 0.88 nM and the “EMax, OVCAR 5 cells (cAMP)” value amounted to 92%.

On to Ac-LEGREKVRAK(Ac)I[Aib][Aib]EGK([TTDS-TTDS-TTDS-γGlu-γGlu-γGlu-Palmitoyl])ST[αMeF]SRRAK(Ac)-NH2 [peptide of SEQ ID NO: 89], for which the “EC50 (nM), OVCAR 5 cells (cAMP)” value stood at 0.1 nM and the “EMax, OVCAR 5 cells (cAMP)” value came out at 97%.

With Ac-LEGREKVRAK(Ac)I[Aib][Aib]EGK([TTDS-TTDS-TTDS-γGlu-γGlu-γGlu-Palmitoyl])STFTRRAK(Ac)-NH2 [peptide of SEQ ID NO: 93], the “EC50 (nM), OVCAR 5 cells (cAMP)” value turned out to be 0.77 nM and the “EMax, OVCAR 5 cells (cAMP)” value was found to be 86%.

With Ac-LEGREKVRAK(Ac)I[Aib][Aib]EGK([TTDS-TTDS-γGlu-γGlu-γGlu-γGlu-Palmitoyl])STFS[αMeK]RAK(Ac)-NH2 [peptide of SEQ ID NO: 10], the “EC50 (nM), OVCAR 5 cells (cAMP)” value amounted to 0.79 nM and the “EMax, OVCAR 5 cells (cAMP)” value was found to be 95%.

Turning to Ac-LEGREKVRAK(Ac)I[Aib]IEGK([TTDS-TTDS-TTDS-γGlu-γGlu-γGlu-Palmitoyl])STFS[αMeK]RAK(Ac)-NH2 [peptide of SEQ ID NO: 84], the “EC50 (nM), OVCAR 5 cells (cAMP)” value was determined as 0.1 nM and the “EMax, OVCAR 5 cells (cAMP)” value worked out at 95%.

On to Ac-LEGREKVRA[Cit]I[Aib][Aib]EGK([TTDS-TTDS-TTDS-γGlu-γGlu-γGlu-Palmitoyl])STFS[αMeK]RAK(Ac)-NH2 [peptide of SEQ ID NO: 12], for which the “EC50 (nM), OVCAR 5 cells (cAMP)” value came to 0.93 nM and the “EMax, OVCAR 5 cells (cAMP)” value was determined as 90%.

Consider Ac-LEGREKVRAK(Ac)I[Aib][Aib]EGK([TTDS-TTDS-TTDS-γGlu-γGlu-γGlu-Palmitoyl])STFSRRAK(Ac)-NH2 [peptide of SEQ ID NO: 87], for which the “EC50 (nM), OVCAR 5 cells (cAMP)” value turned out to be 0.1 nM and the “EMax, OVCAR 5 cells (cAMP)” value was determined as 96%.

As for Ac-LEGRERVRAK(Ac)I[Aib][Aib]EGK([TTDS-TTDS-TTDS-γGlu-γGlu-γGlu-Palmitoyl])ST[Trp(5-F)]S[Aib]RRK(Ac)-NH2 [peptide of SEQ ID NO: 92], the “EC50 (nM), OVCAR 5 cells (cAMP)” value was 0.1 nM and the “EMax, OVCAR 5 cells (cAMP)” value is 99%.

Consider Ac-LEGREKVRAK(Ac)I[Aib][Aib]EGK([TTDS-TTDS-TTDS-γGlu-γGlu-γGlu-Palmitoyl])STF[dS]KRAK(Ac)-NH2 [peptide of SEQ ID NO: 14], for which the “EC50 (nM), OVCAR 5 cells (cAMP)” value turned out to be 3.2 nM and the “EMax, OVCAR 5 cells (cAMP)” value was 90%.

On to Ac-LEGREKVRAK(Ac)I[Aib][Aib]EGK([TTDS-TTDS-TTDS-γGlu-γGlu-γGlu-Myristoyl])STFS[αMeK]RAK(Ac)-NH2 [peptide of SEQ ID NO: 95], for which the “EC50 (nM), OVCAR 5 cells (cAMP)” value came out at 1.8 nM and the “EMax, OVCAR 5 cells (cAMP)” value stood at 91%.

Ac-LEGREKVRAK(Ac)I[Aib][Aib]EGK([TTDS-TTDS-TTDS-γGlu-γGlu-γGlu-γGlu-Myristoyl])STFS[αMeK]RAK-NH2 [peptide of SEQ ID NO: 97]: the “EC50 (nM), OVCAR 5 cells (cAMP)” value worked out at 0.29 nM and the “EMax, OVCAR 5 cells (cAMP)” value came out at 98%.

Regarding Ac-LEGREKVRAK(Ac)IA[Aib]EGK([TTDS-TTDS-TTDS-γGlu-γGlu-γGlu-Palmitoyl])STFS[αMeK]RAK(Ac)-NH2 [peptide of SEQ ID NO: 90], the “EC50 (nM), OVCAR 5 cells (cAMP)” value stood at 0.14 nM and the “EMax, OVCAR 5 cells (cAMP)” value was found to be 97%.

For the molecule Ac-[Aib]EGREKVRAK(Ac)I[Aib]IEGK([TTDS-TTDS-TTDS-γGlu-γGlu-γGlu-Palmitoyl])STFS[αMeK]RAK(Ac)-NH2 [peptide of SEQ ID NO: 86], the “EC50 (nM), OVCAR 5 cells (cAMP)” value was determined as 0.3 nM and the “EMax, OVCAR 5 cells (cAMP)” value is 95%.

On to Ac-LEGREKVRAK(Ac)I[Aib][Aib]EGK([TTDS-TTDS-TTDS-γGlu-γGlu-γGlu-Palmitoyl])SKWS[Aib]RKK(Ac)-NH2 [peptide of SEQ ID NO: 83], for which the “EC50 (nM), OVCAR 5 cells (cAMP)” value is 0.25 nM and the “EMax, OVCAR 5 cells (cAMP)” value turned out to be 94%.

For Ac-LEGREKVRAK(Ac)I[Aib][Aib]EGK([TTDS-TTDS-TTDS-γGlu-γGlu-γGlu-Palmitoyl])STWS[αMeK]RAK(Ac)-NH2 [peptide of SEQ ID NO: 11], the “EC50 (nM), OVCAR 5 cells (cAMP)” value was found to be 0.83 nM and the “EMax, OVCAR 5 cells (cAMP)” value was found to be 93%.

B1: peptide of SEQ ID NO: 8 (peptide)
peptide: Ac-LEGREKVRAK(Ac)I[Aib][Aib]EGK([AEEA-AEEA-AEEA-AEEA-γGlu-γGlu-γGlu-Palmitoyl])STFS[αMeK]RAK(Ac)-NH2
SMILES: CCCCCCCCCCCCCCCC(=O)N[C@@H](CCC(=O)N[C@@H](CCC(=O)N[C@@H](CCC(=O)NCCOCCOCC(=O)NCCOCCOCC(=O)NCCOCCOCC(=O)NCCOCCOCC(=O)NCCCC[C@H](NC(=O)CNC(=O)[C@H](CCC(=O)O)NC(=O)C(C)(C)NC(=O)C(C)(C)NC(=O)[C@@H](NC(=O)[C@H](CCCCNC(C)=O)NC(=O)[C@H](C)NC(=O)[C@H](CCCNC(=N)N)NC(=O)[C@@H](NC(=O)[C@H](CCCCN)NC(=O)[C@H](CCC(=O)O)NC(=O)[C@H](CCCNC(=N)N)NC(=O)CNC(=O)[C@H](CCC(=O)O)NC(=O)[C@H](CC(C)C)NC(C)=O)C(C)C)[C@@H](C)CC)C(=O)N[C@@H](CO)C(=O)N[C@H](C(=O)N[C@@H](Cc1ccccc1)C(=O)N[C@@H](CO)C(=O)N[C@@](C)(CCCCN)C(=O)N[C@@H](CCCNC(=N)N)C(=O)N[C@@H](C)C(=O)N[C@@H](CCCCNC(C)=O)C(N)=O)[C@@H](C)O)C(=O)O)C(=O)O)C(=O)O
As for B1, the “EC50 (nM), OVCAR 5 cells (cAMP)” value came out at 1.86 nM and the “EMax, OVCAR 5 cells (cAMP)” value was 92%.

Consider Ac-LEGREKVR[Aib]K(Ac)I[Aib][Aib]EGK([TTDS-TTDS-TTDS-γGlu-γGlu-γGlu-Palmitoyl])STWS[Aib]RAK(Ac)-NH2 [peptide of SEQ ID NO: 82], for which the “EC50 (nM), OVCAR 5 cells (cAMP)” value is 0.54 nM and the “EMax, OVCAR 5 cells (cAMP)” value came to 95%.

Take Ac-K(Ac)EGREKVRAK(Ac)I[Aib][Aib]EGK([TTDS-TTDS-TTDS-γGlu-γGlu-γGlu-Palmitoyl])STFS[αMeK]RAK(Ac)-NH2 [peptide of SEQ ID NO: 81]: the “EC50 (nM), OVCAR 5 cells (cAMP)” value is 0.16 nM and the “EMax, OVCAR 5 cells (cAMP)” value came out at 98%.

With Ac-LEGREKVRAK(Ac)I[Aib][Aib]EGK([TTDS-TTDS-TTDS-γGlu-γGlu-γGlu-Palmitoyl])STFSKRAK(Ac)-NH2 [peptide of SEQ ID NO: 13], the “EC50 (nM), OVCAR 5 cells (cAMP)” value is 2.12 nM and the “EMax, OVCAR 5 cells (cAMP)” value is 91%.

On to Ac-LEGREKVRAK(Ac)I[Aib][Aib]EGK([TTDS-TTDS-γGlu-γGlu-Palmitoyl])STFS[αMeK]RAK(Ac)-NH2 [peptide of SEQ ID NO: 9], for which the “EC50 (nM), OVCAR 5 cells (cAMP)” value is 0.7 nM and the “EMax, OVCAR 5 cells (cAMP)” value came to 93%.
